In the data set the test system is HPPD polypeptides. In words: coupled HPPD activity assay: turnover and residual turnover in crude extracts. Format: biochemical, Pseudomonas fluorescens. The conditions noted are these: for Residual turnover [%]: 100 μM Cmpd. 1, signal change with inhibitor divided by signal change without inhibitor; for Turnover: absence of Cmpd. 1, kinetic changes in absorbance (OD) at 320 nm, 30 min; for Turnover / Residual turnover: high substrate concentration; for Residual turnover: presence of 100 μM Cmpd. 1, changes in absorbance (OD) at 320 nm. The method, then:
The activity of HPPD polypeptides was determined in absence or presence of HPPD inhibitors using the coupled HPPD activity assay (FIG. 1).
For the determination of the residual activity, the apparent kinetic constant (kapp) of the determined substrate conversion was measured as kinetic changes in absorbance (OD) at 320 nm in a coupled assay, in that homogentisate (HGA) formed by HPPD from HPP is directly converted into the well absorbing molecule maleylacetoacetate (MAA) by a second enzyme homogentisate dioxygenase (HGD), applied in excess uniformly in all assays (see FIG. 1). The measurements were performed in 384 micro titer plates (Greiner Bio-One GmbH, Frickenhausen, Germany) by plate readers (Tecan infinite M1000 or M1000PRO, Tecan, Männedorf, Switzerland). The kcat/kM ratio of an enzymatic activity is proportional to the apparent kinetic constant kapp and is proportional to kcat/kM*[E] ([E]=enzyme concentration). […] As both kapp measurements in the presence and absence of inhibitor were performed by use of the identical enzyme sample, crude or purified, and thereby at the same enzyme concentration, the enzyme concentration eliminates from the calculation of residual activity and the ratio of both kapp directly indicates the change of kM due to the inhibition.
The assay solution used for determination of residual activities in raw HPPD polypeptide samples was composed by 200 mM sodium phosphate (Merck, Darmstadt, Germany, pH 7.0), 5 mM MgCl2 (Merck, Darmstadt, Germany), 20 mM ascorbate (Sigma-Aldrich, St. Louis, USA), 1 mM DTT (Sigma-Aldrich, St. Louis, USA), 0.1% Pluronic F-68 (Sigma-Aldrich, St. Louis, USA), 40 μM FeSO4 (Sigma-Aldrich, St. Louis, USA), about 8 mg/ml purified HGD and 500 μM HPP from a 1 M stock solution in DMSO (Sigma-Aldrich, St. Louis, USA) and equilibrated for 20 min on ice. For every HPPD polypeptide sample two assays were performed in quadruplets, whereby 5 μl of HPPD polypeptide sample were mixed firstly with 5 μl buffer (1×BugBuster®; (Merck, Darmstadt, Germany); in 140 mM Tris, pH 7.8, with 1:25000 diluted BNase®; Qiagen, Hilden, Germany)) or 5 μl inhibitor diluted in the same buffer from a 0.1 M stock solution in DMSO (200 μM resulting in 100 μM in the HPPD polypeptide/inhibitor sample) in the reference and inhibition assay, respectively, and subsequently with 10 μl assay solution. The change in absorbance at 320 nm was followed in 1 min intervals for 30 min. The kapp values were calculated as signal slope over time in the early phase of the kinetic reaction, usually for the first 5-10 minutes of the measurements. Additionally and according to the calculated residual activity, the total conversion, i.e. the absolute change in signal, in the 30 min timeframe was monitored as measure of turnover, and a residual turnover was calculated by dividing the change in signal in the presence of inhibitor by the change in signal in the reference sample without inhibitor.
Residual turnover were determined according to Example 3 by measuring total change in signal in the presence and absence of Cmpd. 1 (2-chloro-3-(methylsulfanyl)-N-(1-methyl-1H-tetrazol-5-yl)-4-(trifluoromethyl)benzamide). For each mutant HPPD polypeptide, the total change in signal without HPPD inhibitor herbicides served for normalization of the total change in signal in the presence of the herbicide.

From US11180770B2, “HPPD variants and methods of use” (BASF Agricultural Solutions Seed US LLC, priority 2017, dated 2021) come the findings set out here.

B1: 63 (protein)
chain: MADLYENPMGLMGFEFIEFASPTPGTLEPIFEIMGFTKVATHRSKNVHLYRQGEINLILNNEPNSIASYFAAEHGPSVCGMAFRVKDSQKAYNRALELGAQPIHIDTGPMELNLPAIKGIGGAPLYLIDRFGEGSSIYDIDFVYLEGVERNPVGAGLKVIDHLTHNVYRGRMVYWANFYEKLFNFREARYFDIKGEYTGLTSKAMSAPDGMIKIALNEESSKGAGQIEEFLMQFNGEGIQHVAFLTDDLVKTWDALKKIGMRFMTAPADSYYEMLEGRLPDHGEPVDQLQARGILLDGSSVEGDKRLLLQIFSETLMGPVFFEFIQRKGDDGFGPHSFKVLFEQIERDQVRRGVLTAD
modifications: mutant HPPD polypeptide
Turning to B1, the “Residual turnover [%]” value was 68%, the Turnover came to 0.23 and the Residual turnover turned out to be 0.156.

B2: 66 (protein)
chain: MADLYENPMGLMGFEFIEFASPTPGTLEPIFEIMGFTKVATHRSKNVHLYRQGEINLILNNEPNSIASYFAAEHGPSVCGMAFRVKDSQKAYNRALELGAQPIHIDTGPMELNLPAIKGIGGAPLYLIDRFGEGSSIYDIDFVYLEGVERNPVGAGLKVIDHLTHNVYRGRMVYWANFYEKLFNFREARYFDIKGEYTGLTSKAMSAPDGMIKIPLNEESSKGAGQIEEFLMQFNGEGIQHVAFLTDDLVKTWDALKKIGMRFMTAPADSYYEMLEGRLPDHGEPVDQLQARGILLDGSSVEGDKRLLLQIFSETLMGPVFFEFIQRKGDDGFGPHSFKVLFEQMERDQVRRGVLTAD
modifications: mutant HPPD polypeptide
With B2, the “Residual turnover [%]” value amounted to 56%, the Turnover is recorded as 0.336 and the Residual turnover is given as 0.187.

B3: 67 (protein)
chain: MADLYENPMGLMGFEFIEFASPTPGTLEPIFEIMGFTKVATHRSKNVHLYRQGEINLILNNEPNSIASYFAAEHGPSVCGMAFRVKDSQKAYNRALELGAQPIHIDTGPMELNLPAIKGIGGAPLYLIDRFGEGSSIYDIDFVYLEGVERNPVGAGLKVIDHLTHNVYRGRMVYWANFYEKLFNFREARYFDIKGEYTGLTSKAMSAPDGMIKIPLNEESSKGAGQIEEFLMQFNGEGIQHVAFLTDDLVKTWDALKKIGMRFMTAPADSYYEMLEGRLPDHGEPVDQLQARGILLDGSSVEGDKRLLLQIFSERLMGPVFFEFIQRKGDDGFGPHSFKVLFEQMERDQVRRGVLTAD
modifications: mutant HPPD polypeptide
As for B3, the “Residual turnover [%]” value is listed as 64%, the Turnover worked out at 0.335 and the Residual turnover was found to be 0.215.

B4: 70 (protein)
chain: MADLYENPMGLMGFEFIEFASPTPGTLEPIFEIMGFTKVATHRSKNVHLYRQGEINLILNNEPNSIASYFAAEHGPSVCGMAFRVKDSQKAYNRALELGAQPIHIDTGPMELNLPAIKGIGGAPLYLIDRFGEGSSIYDIDFVYLEGVERNPVGAGLKVIDHLTHNVYRGRMVYWANFYEKLFNFREARYFDIKGEYTGLTSKAMSAPDGMIKIPLNEESSKGAGQIEEFLMQFNGEGIQHVAFLTDDLVKTWDALKKIGMRFMTAPADSYYEMLEGRLPDHGEPVDQLQARGILLDGSSVEGDKRLLLQIFSEQLMGPVFFEFIQRKGDDGFGPHSFKVLFEQMERDQVRRGVLTAD
modifications: mutant HPPD polypeptide
Turning to B4, the “Residual turnover [%]” value stood at 71%, the Turnover was found to be 0.338 and the Residual turnover was found to be 0.240.

B5: 69 (protein)
chain: MADLYENPMGLMGFEFIEFASPTPGTLEPIFEIMGFTKVATHRSKNVHLYRQGEINLILNNEPNSIASYFAAEHGPSVCGMAFRVKDSQKAYNRALELGAQPIHIDTGPMELNLPAIKGIGGAPLYLIDRFGEGSSIYDIDFVYLEGVERNPVGAGLKVIDHLTHNVYRGRMVYWANFYEKLFNFREARYFDIKGEYTGLTSKAMSAPDGMIRIPLNEESSKGAGQIEEFLMQFNGEGIQHVAFLTDDLVKTWDALKKIGMRFMTAPADSYYEMLEGRLPDHGEPVDQLQARGILLDGSSVEGDKRLLLQIFSERLMGPVFFEFIQRKGDDGFGPHSFKVLFEQMERDQVRRGVLTAD
modifications: mutant HPPD polypeptide
For B5, the “Residual turnover [%]” value amounted to 66%, the Turnover was found to be 0.36 and the Residual turnover worked out at 0.237.

B6: 2 (protein)
chain: MADLYENPMGLMGFEFIEFASPTPGTLEPIFEIMGFTKVATHRSKNVHLYRQGEINLILNNEPNSIASYFAAEHGPSVCGMAFRVKDSQKAYNRALELGAQPIHIDTGPMELNLPAIKGIGGAPLYLIDRFGEGSSIYDIDFVYLEGVERNPVGAGLKVIDHLTHNVYRGRMVYWANFYEKLFNFREARYFDIKGEYTGLTSKAMSAPDGMIRIPLNEESSKGAGQIEEFLMQFNGEGIQHVAFLTDDLVKTWDALKKIGMRFMTAPPDTYYEMLEGRLPDHGEPVDQLQARGILLDGSSVEGDKRLLLQIFSETLMGPVFFEFIQRKGDDGFGPWNFAQLFESIERDQVRRGVLTAD
modifications: mutant HPPD polypeptide
As to B6, the Turnover is given as 0.060 and the Residual turnover was 0.026.

B7: 65 (protein)
chain: MADLYENPMGLMGFEFIEFASPTPGTLEPIFEIMGFTKVATHRSKNVHLYRQGEINLILNNEPNSIASYFAAEHGPSVCGMAFRVKDSQKAYNRALELGAQPIHIDTGPMELNLPAIKGIGGAPLYLIDRFGEGSSIYDIDFVYLEGVERNPVGAGLKVIDHLTHNVYRGRMVYWANFYEKLFNFREARYFDIKGEYTGLTSKAMSAPDGMIRIPLNEESSKGAGQIEEFLMQFNGEGIQHVAFLTDDLVKTWDALKKIGMRFMTAPADSYYEMLEGRLPDHGEPVDQLQARGILLDGSSVEGDKRLLLQIFSERLMGPVFFEFIQRKGDDGFGPHSFKVLFESMERDQVRRGVLTAD
modifications: mutant HPPD polypeptide
For the molecule B7, the “Residual turnover [%]” value was 54%, the Turnover turned out to be 0.327 and the Residual turnover stood at 0.177.

B8: 68 (protein)
chain: MADLYENPMGLMGFEFIEFASPTPGTLEPIFEIMGFTKVATHRSKNVHLYRQGEINLILNNEPNSIASYFAAEHGPSVCGMAFRVKDSQKAYNRALELGAQPIHIDTGPMELNLPAIKGIGGAPLYLIDRFGEGSSIYDIDFVYLEGVERNPVGAGLKVIDHLTHNVYRGRMVYWANFYEKLFNFREARYFDIKGEYTGLTSKAMSAPDGMIRIPLNEESSKGAGQIEEFLMQFNGEGIQHVAFLTDDLVKTWDALKKIGMRFMTAPADSYYEMLEGRLPDHGEPVDQLQARGILLDGSSVEGDKRLLLQIFSEQLMGPVFFEFIQRKGDDGFGPHSFKVLFEQMERDQVRRGVLTAD
modifications: mutant HPPD polypeptide
As to B8, the “Residual turnover [%]” value is on record as 64%, the Turnover amounted to 0.346 and the Residual turnover came out at 0.223.

B9: 64 (protein)
chain: MADLYENPMGLMGFEFIEFASPTPGTLEPIFEIMGFTKVATHRSKNVHLYRQGEINLILNNEPNSIASYFAAEHGPSVCGMAFRVKDSQKAYNRALELGAQPIHIDTGPMELNLPAIKGIGGAPLYLIDRFGEGSSIYDIDFVYLEGVERNPVGAGLKVIDHLTHNVYRGRMVYWANFYEKLFNFREARYFDIKGEYTGLTSKAMSAPDGMIRIPLNEESSKGAGQIEEFLMQFNGEGIQHVAFLTDDLVKTWDALKKIGMRFMTAPADSYYEMLEGRLPDHGEPVDQLQARGILLDGSSVEGDKRLLLQIFSETLMGPVFFEFIQRKGDDGFGPHSFKVLFEQMERDQVRRGVLTAD
modifications: mutant HPPD polypeptide
On to B9, for which the “Residual turnover [%]” value is 47%, the Turnover was 0.242 and the Residual turnover is 0.114.
